The values that follow come from patent US20100196392A1 (Kyowa Kirin, published 2010).

Experiment [1] deals with T1, human ASCT2-myc/His (fusion protein in which myc/His was added to the C-terminal of human ASCT2), expressed … (human, UniProt Q15758 1-541).
T1 construct: Also used as cell lysate in Western blotting and immunoprecipitation; also called ASCT2/CHO; human ASCT2-myc/His gene-introduced CHO cells
T1 sequence: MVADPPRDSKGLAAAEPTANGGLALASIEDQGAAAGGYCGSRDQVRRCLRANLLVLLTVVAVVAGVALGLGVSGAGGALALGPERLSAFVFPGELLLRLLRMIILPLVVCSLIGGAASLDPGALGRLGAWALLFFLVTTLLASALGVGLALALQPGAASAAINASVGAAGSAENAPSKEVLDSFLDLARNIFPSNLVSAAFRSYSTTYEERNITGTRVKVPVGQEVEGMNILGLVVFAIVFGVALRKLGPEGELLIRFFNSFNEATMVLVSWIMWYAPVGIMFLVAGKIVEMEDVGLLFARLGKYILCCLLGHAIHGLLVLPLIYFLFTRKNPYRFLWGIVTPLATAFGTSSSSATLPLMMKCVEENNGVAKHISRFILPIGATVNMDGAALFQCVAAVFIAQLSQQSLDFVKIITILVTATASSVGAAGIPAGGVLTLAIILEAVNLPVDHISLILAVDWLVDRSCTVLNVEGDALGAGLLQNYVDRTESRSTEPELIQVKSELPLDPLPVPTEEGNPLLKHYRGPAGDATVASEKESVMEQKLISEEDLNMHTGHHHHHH
Kind of experiment: flow cytometry on human ASCT2-myc/His CHO cells. The method, then: (§1) The human ASCT2-myc/His gene-introduced CHO cell obtained in Example 2, the vector-introduced CHO cell and the multiple myeloma cell line KMS-11 (HSRRB No. JCRB1179) were respectively cultured in a 5% CO₂ incubator for 3 to 4 days at 37° C. The human ASCT2-myc/His gene-introduced CHO cells and the vector-introduced CHO cells were peeled off with a 0.02% EDTA solution (manufactured by Nacalai Tesque) and washed with a mixed solution of PBS, 0.02% EDTA and 0.05% sodium azide. Additionally, in order to avoid the non-specific adsorption of antibodies, the cells were blocked for 30 minutes at ice temperature using 1% BSA-PBS for the human ASCT2-myc/His gene-introduced CHO cells and the vector-introduced CHO cells, and using 100 μg/mL of human IgG (manufactured by Sigma) for KMS-11. The cells were seeded into a 96-well U-bottom plate so as to give a density of 1×10⁵ to 5×10⁵ cells/100 μL/well and centrifuged at 1,500 rpm for 5 minutes (05PR-22, manufactured by Hitachi Koki) and then the supernatant was removed. The test substances as the primary antibody, i.e., the purified antibodies and rat IgG2a-UNLB (negative control, manufactured by Beckman Coulter) or KM511 {negative control, anti-G-CSF derivative antibody, [Agric. Biol. Chem., 53, 1095 (1989)], mouse IgG1} were diluted to give a final concentration of 10 μg/mL in a mixed solution (hereinafter, referred to as “Dilution Solution A”) of 1% BSA-PBS, 0.02% EDTA and 0.05% sodium azide and the resulting solution was added at the volume of 100 μL/well, followed by reaction for 60 minutes at ice temperature. […] Washing with Dilution Solution A was carried out three times again, the cells were suspended in PBS and the fluorescence intensity was measured by a flow cytometer (Cytomics FC500 MPL, manufactured by Beckman Coulter).
Background: Flow cytometry measures light scatter and fluorescence of single cells or particles in a stream.

The target in experiment [2] is T2, human ASCT2 (system ASC amino acid transporter 2), endogenous on human cancer cell lines KMS-11, OPM-2, WiDr … (human, UniProt Q15758 1-541).
T2 construct: also called SLC1A5
T2 sequence: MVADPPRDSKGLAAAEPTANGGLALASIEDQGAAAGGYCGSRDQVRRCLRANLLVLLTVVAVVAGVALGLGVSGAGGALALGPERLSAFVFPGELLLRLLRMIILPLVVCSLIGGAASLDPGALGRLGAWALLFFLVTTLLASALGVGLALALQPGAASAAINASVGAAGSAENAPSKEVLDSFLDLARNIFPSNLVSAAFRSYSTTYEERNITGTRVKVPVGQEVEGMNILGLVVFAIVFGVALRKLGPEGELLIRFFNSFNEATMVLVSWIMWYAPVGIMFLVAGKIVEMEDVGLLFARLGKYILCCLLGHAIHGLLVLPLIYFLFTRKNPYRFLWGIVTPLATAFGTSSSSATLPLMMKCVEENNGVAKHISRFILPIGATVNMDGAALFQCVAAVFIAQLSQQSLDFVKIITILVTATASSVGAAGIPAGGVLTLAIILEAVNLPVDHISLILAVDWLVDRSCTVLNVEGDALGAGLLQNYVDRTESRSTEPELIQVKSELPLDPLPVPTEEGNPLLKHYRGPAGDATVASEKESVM
Kind of experiment: flow cytometry on KMS-11 cells. The protocol: as §1

For experiment [3], the target named is T2, human ASCT2 (system ASC amino acid …). Kind of experiment: flow cytometry on OPM-2 cells, 0.01 to 10 ug/mL. The method, then: (§2) Each of the human ASCT2-myc/His gene-introduced CHO cell obtained in Example 2, and the multiple myeloma cell line OPM-2 (DSMZ Accession No. ACC50) was cultured in a 5% CO₂ incubator for 3 to 4 days at 37° C. The human ASCT2-myc/His gene-introduced CHO cells were peeled off with a 0.02% EDTA solution (manufactured by Nacalai Tesque), and in order to avoid the non-specific adsorption of antibodies, the cells were blocked for 30 minutes at ice temperature using 1% BSA-PBS. The cells were seeded into a 96-well U-bottom plate so as to give a density of 1×10⁵ to 5×10⁵ cells/100 μL/well. The plates were centrifugation at 1,500 rpm for 5 minutes (05PR-22, manufactured by Hitachi Koki), and then the supernatant was removed. As the primary antibody, the purified antibody which was a test substance was diluted to give a final concentration of 0.01 μg/mL to 10 μg/mL in 1% BSA-PBS, and dispensed to the plate at 100 μL/well, followed by reaction at ice temperature for 60 minutes. After washing the cells with 1% BSA-PBS, FITC-labeled anti-human immunoglobulin G (H+L) (manufactured by Jackson Laboratories) diluted with 1% BSA-PBS was added as the secondary antibody, followed by reaction at ice temperature for 30 minutes under shading. The cells were washed with 1% BSA-PBS and then suspended in PBS. The fluorescence intensity of the cells was measured by a flow cytometer (Cytomics FC500 MPL, manufactured by Beckman Coulter).

Experiment [4] deals with T1, human ASCT2-myc/His (fusion protein in …). Kind of experiment: flow cytometry on human ASCT2-myc/His CHO cells, 0.01 to 10 ug/mL. The method, then:
as §2

Experiment [5] concerns the target T3, mouse ASCT2-myc/His, expressed on CHO cells (mouse, UniProt P51912 1-553).
T3 construct: also called mouse ASCT2/CHO
T3 sequence: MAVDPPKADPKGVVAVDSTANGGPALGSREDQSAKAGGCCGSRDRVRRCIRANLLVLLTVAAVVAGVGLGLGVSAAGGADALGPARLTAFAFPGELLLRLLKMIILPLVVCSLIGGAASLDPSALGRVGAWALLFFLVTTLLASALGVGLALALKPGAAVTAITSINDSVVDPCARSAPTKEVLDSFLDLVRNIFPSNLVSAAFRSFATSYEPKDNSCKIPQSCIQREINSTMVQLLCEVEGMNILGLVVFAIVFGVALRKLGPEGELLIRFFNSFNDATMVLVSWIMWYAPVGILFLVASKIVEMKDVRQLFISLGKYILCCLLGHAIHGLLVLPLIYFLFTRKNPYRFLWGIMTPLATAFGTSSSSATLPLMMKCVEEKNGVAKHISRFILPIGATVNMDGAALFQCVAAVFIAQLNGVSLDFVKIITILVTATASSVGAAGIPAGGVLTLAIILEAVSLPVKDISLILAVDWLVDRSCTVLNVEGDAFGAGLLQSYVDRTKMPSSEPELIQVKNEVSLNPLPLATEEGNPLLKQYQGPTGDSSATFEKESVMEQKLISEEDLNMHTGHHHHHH
Kind of experiment: flow cytometry on mouse ASCT2/CHO cells.

B1: anti-ASCT2 monoclonal antibody KM4008 (hybridoma KM4008, FERM BP-10962) (antibody, V domains shown)
VH: QIQLVQSGPELKKPGETVKISCKASGYTFTTFGMSWVKQVPGKGLKWMGWIHTYAGVPIYGDDFKGRFAFSLETSASTAYLQINNVKNEDTATYFCARRSDNYRYFFDYWGQGTTLTVSS
VL: DIQMTQTTSSLSASLGDRVTISCRASQDIRNYLNWYQRKPHGTVKLLIYYTSRLHSGVPSRFSGSGSGTDYSLTISNLEQEDIATYFCQQGHTLPPTFGGGTKLEIKR
notes: Mouse monoclonal antibody
For B1, the binding result in experiment [1] and in experiment [2] was “binds” in each case.

B2: anti-ASCT2 human chimeric antibody cKM4008 (antibody, V domains shown)
VH: QIQLVQSGPELKKPGETVKISCKASGYTFTTFGMSWVKQVPGKGLKWMGWIHTYAGVPIYGDDFKGRFAFSLETSASTAYLQINNVKNEDTATYFCARRSDNYRYFFDYWGQGTTLTVSS
VL: DIQMTQTTSSLSASLGDRVTISCRASQDIRNYLNWYQRKPHGTVKLLIYYTSRLHSGVPSRFSGSGSGTDYSLTISNLEQEDIATYFCQQGHTLPPTFGGGTKLEIKR
notes: VH and VL of KM4008 were inserted into vector pKANTEX93, which carries human CH and CL; The SDS-PAGE pattern was consistent with the IgG class
B2: the binding result in experiment [3] and in experiment [4] was “binds” each time.

B3: anti-ASCT2 monoclonal antibody KM4012 (hybridoma KM4012, FERM BP-10963) (antibody, V domains shown)
VH: QIQLVQSGPELKKPGETVKISCKASGYTFTTYGMSWVKQTPGKGLKWMGWIHTYSGVPIYGDDSKGRFAFSLETSGSIAYLQINNVKNEDTATYFCARRSDGYRYFFDYWGQGTTLTVSS
VL: DIQMTQITSSLSASLGDRVTISCRASQDIRNYLNWYQQKPDGTVKLLIYYTSRLHSGVPSRFSGSGSGTDYSLTISNLEQEDIATYFCQQGNTLPPTFGGGTKLEIKR
notes: Hybridoma antibody
Take B3: the binding result in experiment [1] and in experiment [2] was “binds” in each case.

B4: anti-ASCT2 human chimeric antibody cKM4012 (antibody, V domains shown)
VH: QIQLVQSGPELKKPGETVKISCKASGYTFTTYGMSWVKQTPGKGLKWMGWIHTYSGVPIYGDDSKGRFAFSLETSGSIAYLQINNVKNEDTATYFCARRSDGYRYFFDYWGQGTTLTVSS
VL: DIQMTQITSSLSASLGDRVTISCRASQDIRNYLNWYQQKPDGTVKLLIYYTSRLHSGVPSRFSGSGSGTDYSLTISNLEQEDIATYFCQQGNTLPPTFGGGTKLEIKR
notes: VH and VL of KM4012 were inserted into vector pKANTEX93, which carries human CH and CL; The SDS-PAGE pattern was consistent with the IgG class
Take B4: the binding result in experiment [3] and in experiment [4] was “binds” each time.

B5: anti-ASCT2 monoclonal antibody KM4018 (antibody, V domains shown)
VH: EVQLVESGGGLVQSGRSIRLSCAASGFSFSNYYMAWVRQAPSKGLEWVASITKGGGNTYYRDSVKGRFTFSRDNAKSTLYLQMDSLRSEDTATYYCARQVTIAAVSTSYFDSWGQGVMVTVSS
VL: DIVLTQSPALAVSLGQRATISCKTNQKVDYYGNSYVYWYQQKPGQQPKLLIYLASNLASGIPARFSGRGSGTDFTLTIDPVEADDTATYYCQQSRNLPYTFGAGTKLELKR
notes: Hybridoma antibody
As to B5, the binding result in experiment [5] was “no binding”; in experiment [1], “binds”; in experiment [2], “binds”.

B6: anti-ASCT2 human chimeric antibody cKM4018 (antibody, V domains shown)
VH: EVQLVESGGGLVQSGRSIRLSCAASGFSFSNYYMAWVRQAPSKGLEWVASITKGGGNTYYRDSVKGRFTFSRDNAKSTLYLQMDSLRSEDTATYYCARQVTIAAVSTSYFDSWGQGVMVTVSS
VL: DIVLTQSPALAVSLGQRATISCKTNQKVDYYGNSYVYWYQQKPGQQPKLLIYLASNLASGIPARFSGRGSGTDFTLTIDPVEADDTATYYCQQSRNLPYTFGAGTKLELKR
notes: VH and VL of KM4018 were inserted into vector pKANTEX93, which carries human CH and CL; The SDS-PAGE pattern was consistent with the IgG class
In the case of B6, the binding result in experiment [3] and in experiment [4] was “binds” throughout.
